Measured values taken from PMC10026030, “A short-chain acyl-CoA synthetase that supports branched-chain fatty acid synthesis in Staphylococcus aureus” (The Journal of Biological Chemistry, 2023).
Where two headings read alike, the source gives them in different places.

What was measured:
[1] = biological target: T1, MbcS (methylbutyryl-CoA synthetase; SAUSA300_2542) (Staphylococcus aureus, UniProt A0A0H2XHR6); test: LC-MS/MS of acyl-CoA product, Michaelis-Menten fit; settings: 2.5 mM ATP, 2.5 mM Mg2+, 200 μM CoA, Tris pH 7.5, 37 °C
T1 sequence (A0A0H2XHR6 1-532): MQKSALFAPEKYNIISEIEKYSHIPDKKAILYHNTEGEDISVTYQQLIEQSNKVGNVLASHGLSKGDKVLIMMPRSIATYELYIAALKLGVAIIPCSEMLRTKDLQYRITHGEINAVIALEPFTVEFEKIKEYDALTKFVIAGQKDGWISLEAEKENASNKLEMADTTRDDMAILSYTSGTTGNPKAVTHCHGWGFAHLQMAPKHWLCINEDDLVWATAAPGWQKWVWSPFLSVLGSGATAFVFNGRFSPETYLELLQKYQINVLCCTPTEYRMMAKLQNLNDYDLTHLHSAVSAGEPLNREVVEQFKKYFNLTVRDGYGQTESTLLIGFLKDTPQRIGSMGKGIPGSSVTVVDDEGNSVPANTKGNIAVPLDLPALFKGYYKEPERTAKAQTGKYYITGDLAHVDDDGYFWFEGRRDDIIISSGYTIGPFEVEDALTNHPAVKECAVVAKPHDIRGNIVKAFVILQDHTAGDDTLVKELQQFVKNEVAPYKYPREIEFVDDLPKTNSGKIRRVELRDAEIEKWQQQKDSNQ

purified protein [2] = substrate: CC(C)(COP(=O)(O)OP(=O)(O)OC[C@H]1O[C@@H](n2cnc3c(N)ncnc32)[C@H](O)[C@@H]1OP(=O)(O)O)[C@@H](O)C(=O)NCCC(=O)NCCS; test: purified protein; settings: 2.5 mM ATP, 2.5 mM Mg2+, 50 μM aC5, Tris pH 7.5, 37 °C
purified protein [3] = substrate: CCCC(=O)O; test: purified protein; settings: 2.5 mM ATP, 2.5 mM Mg2+, 200 μM CoA, Tris pH 7.5, 37 °C
purified protein [4] = substrate: Nc1ncnc2c1ncn2[C@@H]1O[C@H](COP(=O)(O)OP(=O)(O)OP(=O)(O)O)[C@@H](O)[C@H]1O; test: purified protein; settings: 2.5 mM Mg2+, 200 μM CoA, 50 μM aC5, Tris pH 7.5, 37 °C

CC(C)CC(=O)O [iC5, isovalerate]
Km [1]: > 500 µM

CC(C)C(=O)O [iC4, isobutyrate]
Km ([1]; read-out: apparent KM): < 10 µM

B1: MbcS (methylbutyryl-CoA synthetase; SAUSA300_2542) (Staphylococcus aureus subsp. aureus USA300) (protein)
chain: MQKSALFAPEKYNIISEIEKYSHIPDKKAILYHNTEGEDISVTYQQLIEQSNKVGNVLASHGLSKGDKVLIMMPRSIATYELYIAALKLGVAIIPCSEMLRTKDLQYRITHGEINAVIALEPFTVEFEKIKEYDALTKFVIAGQKDGWISLEAEKENASNKLEMADTTRDDMAILSYTSGTTGNPKAVTHCHGWGFAHLQMAPKHWLCINEDDLVWATAAPGWQKWVWSPFLSVLGSGATAFVFNGRFSPETYLELLQKYQINVLCCTPTEYRMMAKLQNLNDYDLTHLHSAVSAGEPLNREVVEQFKKYFNLTVRDGYGQTESTLLIGFLKDTPQRIGSMGKGIPGSSVTVVDDEGNSVPANTKGNIAVPLDLPALFKGYYKEPERTAKAQTGKYYITGDLAHVDDDGYFWFEGRRDDIIISSGYTIGPFEVEDALTNHPAVKECAVVAKPHDIRGNIVKAFVILQDHTAGDDTLVKELQQFVKNEVAPYKYPREIEFVDDLPKTNSGKIRRVELRDAEIEKWQQQKDSNQ
Km (purified protein [2]): 49.3 ± 6.9 µM
Km (purified protein [3]): 144 µM
Km (purified protein [4]): 3.2 ± 0.2 µM
